From the supplement of paper PMC10065799, “High-throughput profiling of sequence recognition by tyrosine kinases and SH2 domains using bacterial peptide display” (eLife, 2023)

Assays:
EPHB2 = EPHB2 (UniProt P29323); experiment: phosphorylation enrichment, bacterial display (enrichment ratio); higher = better substrate or ligand; peptides without Tyr show the background
Jak2 = Jak2 (UniProt O60674); experiment: as above
Fer (mouse) = experiment: as above
FGFR1 = FGFR1 (UniProt P11362); experiment: as above
MERTK = MERTK (UniProt Q12866); experiment: as above
AncSZ = experiment: as above
Fyn = Fyn (UniProt P06241); experiment: as above
Fes = Fes (UniProt P07332); experiment: as above
EPHB1 = EPHB1 (UniProt P54762); experiment: as above
FGFR3 = FGFR3 (UniProt P22607); experiment: as above
Hck = Hck (UniProt P08631); experiment: as above
c-Src = experiment: as above
c-Abl (mouse) = experiment: as above
Grb2 SH2 = Grb2 SH2 (UniProt P62993); experiment: SH2 binding enrichment of the phosphorylated peptide, bacterial display (enrichment ratio); higher = better substrate or ligand; peptides without Tyr show the background
SHP2-C SH2 = experiment: as above
c-Src SH2 = experiment: as above
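Wherever SH2 binding enrichment of the phosphorylated peptide, bacterial display is given: peptide library displayed on the E. coli surface as eCPX fusions, selected cells deep-sequenced, score is each peptide's frequency after selection divided by its frequency in the input.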
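Wherever phosphorylation enrichment, bacterial display is given: 11-residue human phosphosite peptides and single-mutation variants displayed on the E. coli surface, counted by deep sequencing, each peptide's frequency after selection divided by its frequency in the unselected input library; frequency after pTyr selection over input frequency; kinase dosed for 20-30% of maximal phosphorylation in three min.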

Sequence of MERTK (Q12866 whole entry, looked up): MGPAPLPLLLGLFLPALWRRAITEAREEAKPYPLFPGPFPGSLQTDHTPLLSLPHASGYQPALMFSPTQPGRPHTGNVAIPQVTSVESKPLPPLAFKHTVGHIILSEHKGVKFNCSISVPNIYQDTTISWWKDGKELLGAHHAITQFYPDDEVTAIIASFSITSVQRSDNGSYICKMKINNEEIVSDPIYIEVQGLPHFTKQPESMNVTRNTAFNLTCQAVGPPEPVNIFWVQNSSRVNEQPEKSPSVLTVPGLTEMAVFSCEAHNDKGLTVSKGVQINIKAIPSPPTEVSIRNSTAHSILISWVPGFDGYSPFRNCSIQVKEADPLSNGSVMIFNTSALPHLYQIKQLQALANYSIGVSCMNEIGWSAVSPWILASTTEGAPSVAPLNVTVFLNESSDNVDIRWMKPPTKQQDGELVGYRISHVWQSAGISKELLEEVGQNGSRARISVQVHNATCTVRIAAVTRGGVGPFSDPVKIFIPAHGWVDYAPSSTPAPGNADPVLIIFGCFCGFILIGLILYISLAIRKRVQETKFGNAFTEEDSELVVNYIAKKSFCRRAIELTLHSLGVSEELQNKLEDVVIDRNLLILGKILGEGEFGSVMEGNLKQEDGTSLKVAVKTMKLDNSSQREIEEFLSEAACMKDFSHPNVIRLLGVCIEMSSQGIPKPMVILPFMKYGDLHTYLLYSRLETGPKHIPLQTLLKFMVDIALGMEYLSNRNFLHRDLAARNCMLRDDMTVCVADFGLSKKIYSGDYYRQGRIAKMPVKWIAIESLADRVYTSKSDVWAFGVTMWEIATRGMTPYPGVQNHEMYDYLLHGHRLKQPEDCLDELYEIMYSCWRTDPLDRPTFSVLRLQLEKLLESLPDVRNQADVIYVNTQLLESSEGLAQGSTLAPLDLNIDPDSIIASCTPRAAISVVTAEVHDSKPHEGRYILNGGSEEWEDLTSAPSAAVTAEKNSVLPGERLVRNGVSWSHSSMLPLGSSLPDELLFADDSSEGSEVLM
Sequence of Fes (P07332 whole entry, looked up): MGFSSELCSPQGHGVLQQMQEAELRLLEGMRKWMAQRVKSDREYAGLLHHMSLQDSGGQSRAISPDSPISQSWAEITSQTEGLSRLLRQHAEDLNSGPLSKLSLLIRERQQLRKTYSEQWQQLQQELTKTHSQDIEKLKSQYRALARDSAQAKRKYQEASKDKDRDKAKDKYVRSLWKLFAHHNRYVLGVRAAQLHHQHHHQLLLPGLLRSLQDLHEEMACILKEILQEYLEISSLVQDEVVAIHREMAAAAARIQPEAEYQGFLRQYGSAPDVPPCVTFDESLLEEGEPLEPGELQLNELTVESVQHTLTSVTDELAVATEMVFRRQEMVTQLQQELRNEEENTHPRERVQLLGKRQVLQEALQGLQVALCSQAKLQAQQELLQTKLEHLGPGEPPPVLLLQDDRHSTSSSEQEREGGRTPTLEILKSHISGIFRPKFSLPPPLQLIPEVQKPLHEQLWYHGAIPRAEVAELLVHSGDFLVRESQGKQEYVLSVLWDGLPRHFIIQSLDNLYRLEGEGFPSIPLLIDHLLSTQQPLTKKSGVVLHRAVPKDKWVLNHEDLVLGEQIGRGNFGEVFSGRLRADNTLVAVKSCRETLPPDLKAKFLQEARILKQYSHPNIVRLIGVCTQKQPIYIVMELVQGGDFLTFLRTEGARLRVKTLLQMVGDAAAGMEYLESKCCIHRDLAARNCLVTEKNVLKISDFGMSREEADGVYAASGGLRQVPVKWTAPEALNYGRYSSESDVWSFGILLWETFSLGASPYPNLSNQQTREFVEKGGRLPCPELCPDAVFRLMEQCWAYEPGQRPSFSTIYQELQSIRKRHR
Sequence of Fyn (P06241 whole entry, looked up): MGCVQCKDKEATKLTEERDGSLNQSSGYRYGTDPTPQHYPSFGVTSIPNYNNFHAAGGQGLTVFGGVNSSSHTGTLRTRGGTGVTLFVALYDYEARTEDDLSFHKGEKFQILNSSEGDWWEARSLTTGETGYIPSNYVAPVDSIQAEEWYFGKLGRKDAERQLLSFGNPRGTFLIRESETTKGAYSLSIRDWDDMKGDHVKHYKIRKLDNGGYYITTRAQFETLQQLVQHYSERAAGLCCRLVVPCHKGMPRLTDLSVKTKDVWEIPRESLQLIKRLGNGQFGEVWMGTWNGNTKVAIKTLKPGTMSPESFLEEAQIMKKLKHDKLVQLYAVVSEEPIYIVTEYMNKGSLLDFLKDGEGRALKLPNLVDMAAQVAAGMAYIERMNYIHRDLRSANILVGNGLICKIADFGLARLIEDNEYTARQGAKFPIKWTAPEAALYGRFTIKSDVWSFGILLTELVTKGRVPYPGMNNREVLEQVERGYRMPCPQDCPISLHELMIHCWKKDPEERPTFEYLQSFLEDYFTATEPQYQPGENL
Sequence of Jak2 (O60674 whole entry, looked up): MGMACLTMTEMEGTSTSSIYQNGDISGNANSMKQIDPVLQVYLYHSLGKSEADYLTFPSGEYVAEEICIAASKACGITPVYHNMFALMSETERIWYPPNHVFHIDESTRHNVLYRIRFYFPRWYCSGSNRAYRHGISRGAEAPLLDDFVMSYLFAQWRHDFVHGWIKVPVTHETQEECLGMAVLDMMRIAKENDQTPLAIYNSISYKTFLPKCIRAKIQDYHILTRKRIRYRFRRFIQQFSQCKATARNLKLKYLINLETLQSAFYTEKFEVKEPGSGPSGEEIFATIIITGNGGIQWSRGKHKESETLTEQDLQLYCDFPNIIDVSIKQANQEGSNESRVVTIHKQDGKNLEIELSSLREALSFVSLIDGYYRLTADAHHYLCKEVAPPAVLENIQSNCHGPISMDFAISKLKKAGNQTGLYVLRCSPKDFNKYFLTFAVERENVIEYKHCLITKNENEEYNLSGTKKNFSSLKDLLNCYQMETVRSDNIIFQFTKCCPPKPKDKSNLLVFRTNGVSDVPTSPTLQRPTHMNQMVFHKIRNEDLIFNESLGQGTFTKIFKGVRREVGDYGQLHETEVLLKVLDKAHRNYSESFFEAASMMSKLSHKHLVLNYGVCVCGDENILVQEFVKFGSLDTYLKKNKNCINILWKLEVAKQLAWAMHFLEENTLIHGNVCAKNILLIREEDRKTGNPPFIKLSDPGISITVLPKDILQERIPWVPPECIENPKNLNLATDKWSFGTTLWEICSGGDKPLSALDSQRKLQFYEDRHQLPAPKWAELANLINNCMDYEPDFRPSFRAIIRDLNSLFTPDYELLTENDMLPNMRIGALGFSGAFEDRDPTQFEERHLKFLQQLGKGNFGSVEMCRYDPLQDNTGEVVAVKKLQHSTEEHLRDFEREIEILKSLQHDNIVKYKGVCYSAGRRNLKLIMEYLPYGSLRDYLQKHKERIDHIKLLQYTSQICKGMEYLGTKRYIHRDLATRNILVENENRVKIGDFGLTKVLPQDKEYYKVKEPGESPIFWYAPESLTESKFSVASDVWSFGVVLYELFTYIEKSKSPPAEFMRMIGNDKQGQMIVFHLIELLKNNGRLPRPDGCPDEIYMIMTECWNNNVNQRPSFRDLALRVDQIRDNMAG
Sequence of EPHB2 (P29323 whole entry, looked up): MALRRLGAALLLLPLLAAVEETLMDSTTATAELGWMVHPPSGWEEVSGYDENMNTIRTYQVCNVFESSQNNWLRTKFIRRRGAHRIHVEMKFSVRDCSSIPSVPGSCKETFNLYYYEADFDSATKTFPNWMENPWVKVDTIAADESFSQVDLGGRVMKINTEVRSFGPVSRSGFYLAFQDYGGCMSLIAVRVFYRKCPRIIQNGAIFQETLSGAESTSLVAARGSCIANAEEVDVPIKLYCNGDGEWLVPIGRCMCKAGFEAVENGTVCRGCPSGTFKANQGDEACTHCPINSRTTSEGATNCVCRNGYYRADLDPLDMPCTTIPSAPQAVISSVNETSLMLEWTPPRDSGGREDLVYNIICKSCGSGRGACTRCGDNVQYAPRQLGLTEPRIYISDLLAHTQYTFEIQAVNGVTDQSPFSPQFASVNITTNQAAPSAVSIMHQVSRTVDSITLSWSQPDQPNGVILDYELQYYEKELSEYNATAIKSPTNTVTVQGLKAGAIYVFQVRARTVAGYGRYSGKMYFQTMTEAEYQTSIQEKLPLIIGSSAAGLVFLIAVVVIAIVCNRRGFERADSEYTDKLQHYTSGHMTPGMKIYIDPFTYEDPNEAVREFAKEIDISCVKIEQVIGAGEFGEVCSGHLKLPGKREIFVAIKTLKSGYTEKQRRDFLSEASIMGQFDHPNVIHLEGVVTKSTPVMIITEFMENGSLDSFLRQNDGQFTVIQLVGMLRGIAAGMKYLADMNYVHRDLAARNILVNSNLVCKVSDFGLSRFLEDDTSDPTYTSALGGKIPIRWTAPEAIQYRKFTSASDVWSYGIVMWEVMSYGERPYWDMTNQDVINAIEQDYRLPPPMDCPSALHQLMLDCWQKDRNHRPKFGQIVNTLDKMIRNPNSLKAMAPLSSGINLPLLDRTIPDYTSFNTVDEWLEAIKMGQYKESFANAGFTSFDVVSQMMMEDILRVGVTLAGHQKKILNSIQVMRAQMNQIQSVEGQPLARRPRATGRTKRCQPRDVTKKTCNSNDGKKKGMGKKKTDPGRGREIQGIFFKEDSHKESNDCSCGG
Sequence of Hck (P08631 whole entry, looked up): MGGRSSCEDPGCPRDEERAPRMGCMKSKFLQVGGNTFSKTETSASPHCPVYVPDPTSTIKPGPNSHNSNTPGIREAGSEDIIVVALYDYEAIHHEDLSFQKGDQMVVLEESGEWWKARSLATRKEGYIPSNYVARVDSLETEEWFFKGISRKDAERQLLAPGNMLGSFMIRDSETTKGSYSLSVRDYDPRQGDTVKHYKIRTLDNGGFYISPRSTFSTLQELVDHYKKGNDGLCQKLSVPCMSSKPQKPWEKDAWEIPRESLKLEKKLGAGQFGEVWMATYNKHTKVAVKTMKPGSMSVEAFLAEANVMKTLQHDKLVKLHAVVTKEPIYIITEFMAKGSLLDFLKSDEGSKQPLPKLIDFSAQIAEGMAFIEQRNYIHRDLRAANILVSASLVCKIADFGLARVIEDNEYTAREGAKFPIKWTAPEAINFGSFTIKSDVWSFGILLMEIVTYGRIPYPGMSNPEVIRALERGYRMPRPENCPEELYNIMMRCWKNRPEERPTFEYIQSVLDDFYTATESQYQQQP

Sequence	SH2 binding enrichment (Grb2 SH2)	SH2 binding enrichment (SHP2-C SH2)	SH2 binding enrichment (c-Src SH2)	phosphorylation enrichment (EPHB2)	phosphorylation enrichment (Jak2)	phosphorylation enrichment (Fer (mouse))	phosphorylation enrichment (FGFR1)	phosphorylation enrichment (MERTK)	phosphorylation enrichment (AncSZ)	phosphorylation enrichment (Fyn)	phosphorylation enrichment (Fes)	phosphorylation enrichment (EPHB1)	phosphorylation enrichment (FGFR3)	phosphorylation enrichment (Hck)	phosphorylation enrichment (c-Src)	phosphorylation enrichment (c-Abl (mouse))
YETDYYQKGGK [INSR_Y1190_R1191Q]	0.863	1.16	1.1	0.615	0.716	0.573	0.983	0.664	1.34	0.519	0.919	0.63	0.907	0.639	0.459	0.526
PQGVRYIYTID [DCX_Y103]	0.772	15.4	0.618	0.951	2.21	1	0.726	0.856	1.73	4.01	5.16	0.943	1.15	1.6	4.09	1.37
PSARTYCYKQE [KLHDC9_Y175]	0.768	0.815	0.643	0.721	0.762	0.666	0.454	0.736	1.14	0.533	1.29	0.647	0.907	0.506	0.439	0.63
FRDMDYRSFPR [RBM10_Y41_YF]	1.01	0.726	0.543	0.492	0.58	0.346	0.473	0.446	0.694	0.424	0.864	0.435	0.482	0.477	0.4	0.485
QLHRKYCLSPR [HJURP_Y445_E444K]	1.09	0.859	0.961	0.728	0.527	0.603	0.815	0.491	0.677	0.545	0.852	0.523	0.581	0.533	0.636	0.679
DTLASYLDKVR [KRT12_Y139_R135T]	0.98	0.73	0.687	0.44	0.42	0.304	0.352	0.411	0.552	0.378	0.76	0.403	0.415	0.408	0.364	0.495
KPEKTYGLRKE [CEP43_Y267]	1.1	0.999	0.823	0.409	0.683	0.395	0.344	0.441	0.595	0.46	0.766	0.433	0.614	0.503	0.43	0.782
FQRITYHNWRH [PDE6B_Y556_R552Q_YF]	1.73	1.86	1.61	0.511	0.791	0.452	0.447	0.41	0.55	0.466	0.762	0.449	0.634	0.478	0.417	0.487
ITVPAYFNDLQ [HSPA9_Y196_S200L]	1.15	0.722	0.583	0.495	1.15	0.524	0.555	0.431	1.13	0.452	1.3	0.705	0.77	0.538	0.468	0.766
FSGKAYADEEQ [CRIM1_Y826_R831Q]	0.992	0.8	0.528	0.675	1.31	0.529	0.459	0.552	1.12	0.522	1.14	0.581	0.81	0.565	0.41	1.2
PEADKYCLTFA [FGG_Y300_R301C_YF]	0.757	0.606	0.498	0.7	1.71	0.72	0.664	0.758	1.33	0.76	1.96	0.685	1.21	1.5	0.683	1.32
APEVIYATPGA [ABLtide_2014]	0.691	0.672	0.439	8.54	0.839	11.6	0.879	8.2	2.58	8.17	1.14	3.19	0.868	9.6	5.95	34.4
LEDDVYRKTCT [XPA_Y257_M256V]	0.604	0.291	0.39	0.724	2.14	1.09	1.05	0.864	1.89	1	2.07	1.14	2.23	1.17	1.2	1.74
CITIHYNFMCN [TP53_Y234_T230I_YF]	2.19	1.43	1.52	0.711	1.31	0.574	0.582	0.456	0.946	0.46	1.44	0.59	0.886	0.489	0.607	0.661
FFLGAYDRFLP [SLC22A5_Y486_V481F_YF]	1.15	1.74	1.25	1.13	1.02	1.04	0.503	3.38	1.5	1.99	1.46	0.756	0.782	3.38	3.75	0.842

Now from value to sequence, other results behind:

SH2 binding enrichment (Grb2 SH2)	SH2 binding enrichment (SHP2-C SH2)	SH2 binding enrichment (c-Src SH2)	Sequence	phosphorylation enrichment (EPHB2)	phosphorylation enrichment (Jak2)	phosphorylation enrichment (Fer (mouse))	phosphorylation enrichment (FGFR1)	phosphorylation enrichment (MERTK)	phosphorylation enrichment (AncSZ)	phosphorylation enrichment (Fyn)	phosphorylation enrichment (Fes)	phosphorylation enrichment (EPHB1)	phosphorylation enrichment (FGFR3)	phosphorylation enrichment (Hck)	phosphorylation enrichment (c-Src)	phosphorylation enrichment (c-Abl (mouse))
0.66	0.734	0.323	LAAAGYDVKKN [H1-3_Y72_E75K]	0.249	0.381	0.305	0.383	0.28	0.414	0.319	0.591	0.355	0.331	0.288	0.324	0.414
0.895	0.689	0.797	GLCSFYETSKM [MAGED2_Y449_R446C_YF]	0.903	1.34	1.95	0.568	0.706	1.4	0.652	1.45	0.71	0.931	0.794	0.83	0.82
0.744	0.521	0.384	DLFRLYICVKE [ARID1B_Y1091_V1092I]	0.715	1.45	0.591	0.471	0.391	1.19	0.456	1.61	0.741	1	0.572	0.499	0.997
0.712	0.777	0.72	SVQVEYMKTIL [GLYATL2_Y127_D126E]	0.476	0.612	0.425	0.437	0.429	0.643	0.413	0.893	0.41	0.578	0.469	0.376	0.484
0.837	2.71	0.922	QTPVLYAMLDH [MPZ_Y220]	8.88	0.845	9.39	3.44	10.7	0.853	5.21	1.02	10.7	2.84	7.14	4.54	2.67
1.22	1.28	0.55	TRDVNYGWIIR [MT-CYB_Y75]	0.91	0.949	0.443	0.344	0.756	0.997	0.475	0.999	0.542	0.654	0.422	0.423	0.595
0.814	0.78	0.528	TRFDEYLEVTK [MAP1A_Y2217_H2214Y_YF]	0.723	1.25	0.501	0.949	0.819	1.32	0.571	1.22	0.789	0.823	0.619	0.444	0.731
0.901	0.849	1.21	YDEYRYRSFIK [CFTR_Y517_V520F]	0.596	1.14	0.64	0.495	0.518	1.06	2.33	0.946	0.54	0.679	1.51	1.62	0.957
1.12	0.761	3.9	KLPFPYDDPFS [GPX2_Y127_YF]	0.773	0.9	0.772	0.63	0.525	1.05	0.545	1.11	0.587	0.755	0.663	0.831	1.16
0.78	0.531	0.523	DDPRTYQKFGF [OAS1_Y362_R361T_YF]	0.469	0.773	0.423	0.473	0.439	0.825	0.717	0.928	0.519	0.544	0.526	0.693	0.607
0.997	0.863	0.878	RMDGKYACSYT [FLNB_Y704_T703K]	0.471	0.722	0.635	0.528	0.484	0.899	0.418	1.02	0.437	0.518	0.541	0.664	0.79
0.874	0.847	0.633	HFVDEYDLTIE [KRAS_Y32_P34L]	0.423	2.13	0.841	0.752	0.812	2.56	0.811	2.16	0.711	1.14	0.749	0.922	1.4
0.933	0.699	0.467	HSLRDYKEALM [ADA2_Y337_H335R]	0.45	1.03	0.44	0.601	0.649	0.746	0.388	1.4	0.775	0.881	0.679	0.56	0.751
0.957	0.829	0.535	FSSLGYPPPEG [ZSWIM4_Y87_YF]	0.481	0.807	0.396	0.437	0.401	0.752	0.443	0.906	0.418	0.704	0.472	0.421	0.593
1.15	1.03	0.667	NQKGKYFNVER [ANAPC4_Y469_R465Q]	0.372	0.489	0.39	0.361	0.373	0.614	0.462	0.603	0.353	0.469	0.449	0.386	0.588
1.01	0.802	0.493	GRQGIYTKNER [GPR143_Y231_E233K]	0.329	0.46	0.556	0.447	0.359	0.422	0.386	0.466	0.357	0.371	0.327	0.327	0.422
0.845	0.631	0.622	GVASDYKCVDP [VPS13B_Y1991_I1994V]	0.62	0.964	0.548	0.533	0.476	1.05	0.504	1.16	0.624	0.821	0.537	0.458	0.791
0.822	0.734	0.454	GEIQEYGAPLD [ABCC1_Y1508_S1512L]	0.716	1.03	0.528	0.598	0.467	1.15	0.514	1.09	0.74	0.798	0.485	0.485	0.743
